The values that follow come from paper PMC11818005, “Elucidation of the key flavonol biosynthetic pathway in golden Camellia and its application in genetic modification of tomato fruit metabolism” (Horticulture Research, 2024).

What all share (experiment): UPLC-UV of flavonol product, initial kinetics
Holding throughout (conditions): 100 mM Tricine pH 7.5, 0.1 mM FeSO4, 10 mM ascorbate, 10 mM 2-oxoglutarate, 28°C

Substrate in data set [1]: O=C1c2c(O)cc(O)cc2O[C@H](c2ccc(O)cc2)[C@H]1O
In kind it is biochemical, Camellia nitidissima. The text has this:
(§1) UPLC-UV of flavonol product, initial kinetics on CnFLS1

Substrate in data set [2]: O=C1c2c(O)cc(O)cc2O[C@H](c2ccc(O)c(O)c2)[C@H]1O
In kind it is biochemical, Camellia nitidissima.
Text: as §1

Substrate in data set [3]: O=C1c2c(O)cc(O)cc2O[C@H](c2ccc(O)cc2)[C@H]1O
The format is biochemical, Arabidopsis thaliana. The text has this:
(§2) UPLC-UV of flavonol product, initial kinetics on AtFLS1

Substrate in data set [4]: O=C1c2c(O)cc(O)cc2O[C@H](c2ccc(O)c(O)c2)[C@H]1O
The format is biochemical, Arabidopsis thaliana.
Text: as §2

B1: CnFLS1 (Camellia nitidissima) (protein)
chain: MELERVQVIASLSKCIDTIPAEYIRSENEQPAITTIQGKVLEVPVIDLSNDSDDQNIVQMVAEACRDWGIFQVVNHGIPDEVIGNLQRVGKDFFELPQEEKEVYAKPPESKSVEGYGTKLQKEVEGKKGWVDHLFHKIWPPSAINYKFWPKNPPSYREANEVYAERLRAVADKLFRWLSLGLGLEGHEVKEAVGGDDLIYLMKINYYPPCPRPDLALGVVAHTDMSTLTILVPNEVPGLQVFKDDHWYEVKYIPNALIVHIGDQIEIVSNGKYKAVFHRSTVNKETTRMSWPVFIEPSPEVEVGPHPKLIDDENPPKYKTKKYEDYMYCKLNKLPQ
What is called Km is the concentration of substrate that gives half-maximal velocity. One may read the kcat as the number of substrate molecules converted per active site and unit of time at saturation. For orientation: kcat/Km means the turnover number divided by the Michaelis constant. For B1, in data set [1], the Michaelis constant (Km) was determined as 60.63 µM, the catalytic constant (kcat) was 0.08 s⁻¹ and the catalytic efficiency (kcat/Km) amounted to 1300 M⁻¹ s⁻¹. Besides, in data set [2], the Michaelis constant (Km) amounted to 18.68 µM, the kcat was 0.02 s⁻¹ and the kcat/Km was found to be 1320 M⁻¹ s⁻¹.

B2: AtFLS1 (Arabidopsis thaliana) (protein)
chain: MEVERVQDISSSSLLTEAIPLEFIRSEKEQPAITTFRGPTPAIPVVDLSDPDEESVRRAVVKASEEWGLFQVVNHGIPTELIRRLQDVGRKFFELPSSEKESVAKPEDSKDIEGYGTKLQKDPEGKKAWVDHLFHRIWPPSCVNYRFWPKNPPEYREVNEEYAVHVKKLSETLLGILSDGLGLKRDALKEGLGGEMAEYMMKINYYPPCPRPDLALGVPAHTDLSGITLLVPNEVPGLQVFKDDHWFDAEYIPSAVIVHIGDQILRLSNGRYKNVLHRTTVDKEKTRMSWPVFLEPPREKIVGPLPELTGDDNPPKFKPFAFKDYSYRKLNKLPLD
notes: cloned for comparison with CnFLS1 (pET28b, E. coli Rosetta (DE3), Ni-NTA purified)
Turning to B2, in data set [3], the Michaelis-Menten constant (Km) came out at 95.01 µM, the kcat came out at 0.11 s⁻¹ and the kcat/Km turned out to be 1180 M⁻¹ s⁻¹. For the same protein, in data set [4], the Km was determined as 29.89 µM, the kcat came to 0.02 s⁻¹ and the catalytic efficiency (kcat/Km) was 794 M⁻¹ s⁻¹.
